The supplement of paper PMC9233669
This sample holds only a part of the variants without activity.

Experiments:
[1] = system: biotinyl-Leu-oxazolone; assay: self-aminoacylation, catalytic enhancement (BLO) (fold over background); higher = more active; k-Seq, kA / k0A0; sequences stand for … in GGGAAUGGAUCCACAUCUACGAAUUC…UUCACUGCAGACUUGACGAAGCUG
Method in brief: (§1)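 Mutagenized RNA pools (0.43 μM; 21-nt variable region) were treated with 2–1250 μM of each biotinyl-aminoacyl-oxazolone. Conditions were 50 μL HEPES/NaCl/KCl/MgCl2/CaCl2 buffer, 5% acetonitrile, pH 6.9–7.0, room temperature, 90 minutes. Catalytic enhancement, the median kA relative to the uncatalyzed rate, was derived from streptavidin capture, qPCR and Illumina sequencing.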

[2] = system: biotinyl-Val-oxazolone; assay: self-aminoacylation, catalytic enhancement (BVO) (fold over background); higher = more active; k-Seq, kA / k0A0; sequences stand for … in GGGAAUGGAUCCACAUCUACGAAUUC…UUCACUGCAGACUUGACGAAGCUG
Method in brief: as §1

[3] = system: biotinyl-Ile-oxazolone; assay: self-aminoacylation, catalytic enhancement (BIO) (fold over background); higher = more active; k-Seq, kA / k0A0; sequences stand for … in GGGAAUGGAUCCACAUCUACGAAUUC…UUCACUGCAGACUUGACGAAGCUG
Method in brief: as §1

[4] = system: biotinyl-Phe-oxazolone; assay: self-aminoacylation, catalytic enhancement (BFO) (fold over background); higher = more active; k-Seq, kA / k0A0; sequences stand for … in GGGAAUGGAUCCACAUCUACGAAUUC…UUCACUGCAGACUUGACGAAGCUG
Method in brief: as §1

[5] = system: biotinyl-Trp-oxazolone; assay: self-aminoacylation, catalytic enhancement (BWO) (fold over background); higher = more active; k-Seq, kA / k0A0; sequences stand for … in GGGAAUGGAUCCACAUCUACGAAUUC…UUCACUGCAGACUUGACGAAGCUG
Method in brief: as §1

[6] = system: biotinyl-Met-oxazolone; assay: self-aminoacylation, catalytic enhancement (BMO) (fold over background); higher = more active; k-Seq, kA / k0A0; sequences stand for … in GGGAAUGGAUCCACAUCUACGAAUUC…UUCACUGCAGACUUGACGAAGCUG
Method in brief: as §1

“AUUCACCGAGGUCUUCGGGUG [Fam2.2 aminoacylation ribozyme variant]” was tested, and the self-aminoacylation [1] was 7.58, the self-aminoacylation [2] was 4.69 and the self-aminoacylation [3] was 3.97. For the same sequence, the self-aminoacylation [4] was 40.7, the self-aminoacylation [5] was 6.52 and the self-aminoacylation [6] was 4.94.

“AUUCACCUAAAUCAUCGGGUG [Fam2.2 aminoacylation ribozyme variant]” showed a self-aminoacylation [1] of 6.91, a self-aminoacylation [2] of 2.56 and a self-aminoacylation [3] of 3.11. For the same sequence, the self-aminoacylation [4] was 34.6, the self-aminoacylation [5] was 5.55 and the self-aminoacylation [6] was 5.3.

For “AUUCACCUAAGACAUCGGGUG [Fam2.2 aminoacylation ribozyme variant]”, the self-aminoacylation [1] was 5.92, the self-aminoacylation [2] was 3.13 and the self-aminoacylation [3] was 3.05. The self-aminoacylation [4] was 33.4, the self-aminoacylation [5] was 4.54 and the self-aminoacylation [6] was 4.49.

For “AUUCACCUAAGUAAUCGGGUG [Fam2.2 aminoacylation ribozyme variant]”, the self-aminoacylation [1] was 5.7, the self-aminoacylation [2] was 2.15 and the self-aminoacylation [3] was 2.81. The self-aminoacylation [4] was 24.9, the self-aminoacylation [5] was 4.33 and the self-aminoacylation [6] was 4.37.

Sequence “AUUCACCUAAGUCAUCAGGUG [Fam2.2 aminoacylation ribozyme variant]” has a self-aminoacylation [1] of 3.53, a self-aminoacylation [2] of 2.07 and a self-aminoacylation [3] of 2.23. It also gave a self-aminoacylation [4] of 11, a self-aminoacylation [5] of 3.31 and a self-aminoacylation [6] of 3.1.

“AUUCACCUAAGUCAUCGCGUG [Fam2.2 aminoacylation ribozyme variant]” was tested, and the self-aminoacylation [1] was 17.7, the self-aminoacylation [2] was 7.56 and the self-aminoacylation [3] was 6.77. The self-aminoacylation [4] was 110, the self-aminoacylation [5] was 15.7 and the self-aminoacylation [6] was 13.4.

Sequence “AUUCACCUAAGUCAUCGGGUC [Fam2.2 aminoacylation ribozyme variant]” has a self-aminoacylation [1] of 1.13, a self-aminoacylation [2] of 1.53 and a self-aminoacylation [3] of 1.01. The self-aminoacylation [4] was 1.31, the self-aminoacylation [5] was 1.78 and the self-aminoacylation [6] was 1.42.

“AUUCACCUAAGUGAUCGGGUG [Fam2.2 aminoacylation ribozyme variant]” was tested, and the self-aminoacylation [1] was 2.94, the self-aminoacylation [2] was 1.77 and the self-aminoacylation [3] was 1.65. For the same sequence, the self-aminoacylation [4] was 9.9, the self-aminoacylation [5] was 2 and the self-aminoacylation [6] was 2.25.

With “AUUCACCUAAGUUAUCGGGUG [Fam2.2 aminoacylation ribozyme variant]” the self-aminoacylation [1] was 8.59, the self-aminoacylation [2] was 3.96 and the self-aminoacylation [3] was 3.83. It also gave a self-aminoacylation [4] of 51, a self-aminoacylation [5] of 5.61 and a self-aminoacylation [6] of 6.15.

“AUUCACCUACGUAAUCGGGUG [Fam2.2 aminoacylation ribozyme variant]” was tested, and the self-aminoacylation [1] was 9.03, the self-aminoacylation [2] was 3.4 and the self-aminoacylation [3] was 3.09. For the same sequence, the self-aminoacylation [4] was 45.9, the self-aminoacylation [5] was 5.66 and the self-aminoacylation [6] was 6.45.

Sequence “AUUCACCUACGUCAUCGGGUA [Fam2.2 aminoacylation ribozyme variant]” has a self-aminoacylation [1] of 1.96, a self-aminoacylation [2] of 1.61 and a self-aminoacylation [3] of 1.58. For the same sequence, the self-aminoacylation [4] was 0.967, the self-aminoacylation [5] was 2.18 and the self-aminoacylation [6] was 1.94.

“AUUCACCUACGUUAUCGGGUG [Fam2.2 aminoacylation ribozyme variant]” was tested, and the self-aminoacylation [1] was 9.22, the self-aminoacylation [2] was 4.17 and the self-aminoacylation [3] was 3.98. The self-aminoacylation [4] was 63.3, the self-aminoacylation [5] was 6.51 and the self-aminoacylation [6] was 7.55.

“AUUCACCUAGAUCAUCGAGUG [Fam2.2 aminoacylation ribozyme variant]” gave a self-aminoacylation [1] of 1.64, a self-aminoacylation [2] of 1.32 and a self-aminoacylation [3] of 1.14. The self-aminoacylation [4] was 1.68, the self-aminoacylation [5] was 0.729 and the self-aminoacylation [6] was 1.33.

“AUUCACCUAGAUCAUCGGCUG [Fam2.2 aminoacylation ribozyme variant]” showed a self-aminoacylation [1] of 1.81, a self-aminoacylation [2] of 1.89 and a self-aminoacylation [3] of 1.69. The self-aminoacylation [4] was 0.62, the self-aminoacylation [5] was 1.63 and the self-aminoacylation [6] was 1.56.

“AUUCACCUAGAUCAUCGGGCG [Fam2.2 aminoacylation ribozyme variant]” showed a self-aminoacylation [1] of 2.33, a self-aminoacylation [2] of 1.93 and a self-aminoacylation [3] of 1.96. For the same sequence, the self-aminoacylation [4] was 8.81, the self-aminoacylation [5] was 1.28 and the self-aminoacylation [6] was 3.12.

Work on “AUUCACCUAGAUCAUCGGGUG [Fam2.2 aminoacylation ribozyme variant]” yielded a self-aminoacylation [1] of 3.47, a self-aminoacylation [2] of 2.22 and a self-aminoacylation [3] of 2.1. It also gave a self-aminoacylation [4] of 14.9, a self-aminoacylation [5] of 2.95 and a self-aminoacylation [6] of 2.8.

Work on “AUUCACCUAGAUCAUCGGGUU [Fam2.2 aminoacylation ribozyme variant]” yielded a self-aminoacylation [1] of 1.17, a self-aminoacylation [2] of 1.11 and a self-aminoacylation [3] of 1.01. The self-aminoacylation [4] was 0.554, the self-aminoacylation [5] was 1.26 and the self-aminoacylation [6] was 0.967.

“AUUCACCUAGAUCAUCGUGUG [Fam2.2 aminoacylation ribozyme variant]” showed a self-aminoacylation [1] of 1.38, a self-aminoacylation [2] of 0.999 and a self-aminoacylation [3] of 0.956. The self-aminoacylation [4] was 1.49, the self-aminoacylation [5] was 1.06 and the self-aminoacylation [6] was 1.36.

Sequence “AUUCACCUAGAUCUUCGGGUG [Fam2.2 aminoacylation ribozyme variant]” has a self-aminoacylation [1] of 3.75, a self-aminoacylation [2] of 2.54 and a self-aminoacylation [3] of 2.18. For the same sequence, the self-aminoacylation [4] was 12.3, the self-aminoacylation [5] was 2.8 and the self-aminoacylation [6] was 3.09.

“AUUCACCUAGAUGAUCGGGUG [Fam2.2 aminoacylation ribozyme variant]” gave a self-aminoacylation [1] of 2.71, a self-aminoacylation [2] of 2.62 and a self-aminoacylation [3] of 2.32. For the same sequence, the self-aminoacylation [4] was 13.7, the self-aminoacylation [5] was 3.34 and the self-aminoacylation [6] was 2.77.

Work on “AUUCACCUAGAUUAUCGGGUG [Fam2.2 aminoacylation ribozyme variant]” yielded a self-aminoacylation [1] of 9, a self-aminoacylation [2] of 4.18 and a self-aminoacylation [3] of 4.48. The self-aminoacylation [4] was 53.7, the self-aminoacylation [5] was 6.65 and the self-aminoacylation [6] was 7.21.

“AUUCACCUAGCCCAUCGGGUG [Fam2.2 aminoacylation ribozyme variant]” gave a self-aminoacylation [1] of 3.35, a self-aminoacylation [2] of 2.58 and a self-aminoacylation [3] of 2. The self-aminoacylation [4] was 13.6, the self-aminoacylation [5] was 3.11 and the self-aminoacylation [6] was 2.92.

For “AUUCACCUAGCGCAUCGGGUG [Fam2.2 aminoacylation ribozyme variant]”, the self-aminoacylation [1] was 2.96, the self-aminoacylation [2] was 1.68 and the self-aminoacylation [3] was 1.55. The self-aminoacylation [4] was 10, the self-aminoacylation [5] was 2.14 and the self-aminoacylation [6] was 1.72.

Work on “AUUCACCUAGCUCAGCGGGUG [Fam2.2 aminoacylation ribozyme variant]” yielded a self-aminoacylation [1] of 3.49, a self-aminoacylation [2] of 2.09 and a self-aminoacylation [3] of 2.08. For the same sequence, the self-aminoacylation [4] was 10.6, the self-aminoacylation [5] was 2.83 and the self-aminoacylation [6] was 2.68.

Sequence “AUUCACCUAGCUCAUCGCGUG [Fam2.2 aminoacylation ribozyme variant]” has a self-aminoacylation [1] of 6.1, a self-aminoacylation [2] of 3.28 and a self-aminoacylation [3] of 2.98. It also gave a self-aminoacylation [4] of 34.7, a self-aminoacylation [5] of 5.18 and a self-aminoacylation [6] of 4.26.
